Assays:
Test in all cases: ELISA: 500 ng peptide coated per well, 29E4 titrated 0-1000 ng/mL, HRP goat anti-rabbit Ig 1:16,000, ABS 450 nm, duplicates
[1] = biological target: T1, overlapping peptide P7 (12 amino acids, FIG. 3 panel A) (human)
T1 construct: The overlapping 12-mer is meant here
T1 peptide: FKQEYHDPVYEH
From the text: (§1) HRP Goat anti-rabbit Ig was applied at 1:16,000 dilution in all reactions.
(§2) Peptides were synthesized to achieve ≥70% HPLC purity by a commercial vendor (GenScript Biotech, Piscataway, NJ). Peptides were reconstituted in either water, or with addition of acetonitrile, methanol, 10% acetic acid, or DMSO, depending on the overall charge of each peptide. Key residues required for mAb binding were probed by ELISA using overlapping peptides, truncated peptides and alanine substituted peptides. Reactions were performed in duplicate using NUNC 96-well flatbottom MaxiSorp plates (Thermo Scientific). After coating each well with 500 ng of peptide in 100 μL coating buffer (50 mM NaHCO₃, pH 9.6), the plates were sealed and incubated at 4° C. overnight. […] Plates were then washed once with wash buffer, incubated with 100 μL mAb 29E4 (serially diluted from 1 mg/mL) for 1 hour at 37° C. Plates were further washed four times with wash buffer, and then incubated at 37° C. with 100 μL of a horse radish peroxidase (HRP)-conjugated secondary antibody against the primary antibody, diluted 1:16,000 according to manufacturer's protocols (KPL, Inc., Gaithersburg, MD). After washing four times with wash buffer, 100 μL of K-Blue Aqueous TMB substrate (Neogen, Lexington, KY) was added to the plates and incubated uncovered for 30 minutes at room temperature. To stop the reaction, 100 μL of 2 N Sulphuric acid was added to each well and absorbance were measured immediately at 450 nm. All dilutions of reagents were performed in ELISA diluent (20% NGS in 1×PBS with 0.1% Triton-X 100).

[2] = biological target: T2, overlapping peptide P6 (12 amino acids, FIG. 3 panel A) (human)
T2 construct: The overlapping 12-mer is meant here
T2 peptide: PQGFKQEYHDPV
From the text: as §1, §2

[3] = biological target: T3, ETV1 immunogenic peptide P1 (human)
T3 construct: 27 amino acid peptide, ETV1 residues 212-238; also called immunogen peptide; ETV1 P1 peptide
From the text: as §1, §2

[4] = biological target: T4, overlapping peptide P4 (12 amino acids, FIG. 3 panel A) (human)
T4 peptide: PNIPFPPQGFKQ
From the text: as §1, §2

[5] = biological target: T5, overlapping peptide P3 (12 amino acids, FIG. 3 panel A) (human)
T5 construct: The overlapping 12-mer is meant here
T5 peptide: MSEPNIPFPPQG
From the text: as §1, §2

[6] = biological target: T6, overlapping peptide P5 (12 amino acids, FIG. 3 panel A) (human)
T6 construct: The overlapping 12-mer is meant here
T6 peptide: PFPPQGFKQEYH
From the text: as §1, §2

T3 sequence (peptide, as listed by the source): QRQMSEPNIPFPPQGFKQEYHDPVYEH

- binding result [1]: no binding (tested: 1000 ng/mL)
- binding result [2]: no binding (tested: 1000 ng/mL)
- EC50 (read off the curve) [3]: ~0.02 mg/L
- EC50 (read off the curve) [4]: ~0.1 mg/L
- binding result [5]: binds
- binding result [6]: binds
B1: ETV1 rabbit monoclonal antibody (29E4) (antibody, V domains shown)
VH: QELEESGGDLVKPGASLTLTCTASGFFFSAENHICWVRQAPGKGLEWIGCVYIGSYVGGSGDPYYASWAKGRFTISKTSSTTVTLQMSSLTAADTATYFCARDLGSLWGPGTLVTVSS
VL: DVVMTQTASSVSAAVGGTVTIACQSSQSVYDNNNLAWFQQKPGQPPKRLIYSASTLASGVSSRFKGSGYGTQFTLTISDVQCDDAATYYCVGAFSGYIFVFGGGTEVVVK
notes: constant regions are not; also called 29E4 mAb; ETV1 29E4 mAb

Reference: patent US20260227403A1 (HENRY M JACKSON FOUNDATION FOR THE ADVANCEMENT OF MILITARY …, published 2026)
